Laboratory results taken from publication PMC3409459, “Absorption, distribution, metabolism and excretion of peginesatide, a novel erythropoiesis-stimulating agent, in rats” (Xenobiotica; the Fate of Foreign Compounds in Biological …, 2011).

How the values were obtained:
[1] = In vivo metabolite profiling, plasma and tissues at 14 days; design: species or system male Sprague-Dawley rats; settings: single IV 5 mg/kg [^14C]-peginesatide; HPLC fractions/LSC; n = 3
[2] = Plasma total radioactivity pharmacokinetics after single IV [^14C]-peginesatide (LSC); format: in vivo, male Sprague-Dawley rats; settings: single 5 mg-kg^-1 IV [^14C]-peginesatide, n=3
Protocol: Total captured radioactivity was subsequently measured via LSC.
The plasma samples were analyzed for total radioactivity using LSC.
(§1) Noncompartmental PK parameters for peginesatide and metabolites were generated using WinNonlin ver. 4.0, Pharsight Corporation (Mountain View, CA). The maximum plasma concentration (Cmax) and their times of occurrence (tmax) were obtained directly from the mean plasma concentration vs. time profiles. The areas under the plasma concentration-time curves […] were estimated by the linear trapezoidal rule - by adding all the area portions under the curve from time zero to the time of the last observed plasma concentration (tn). Elimination rate constants (kz) were estimated by fitting a linear regression of log mean concentration against time data in the terminal exponential phase (at least 3 data points). Apparent terminal half-life (t1/2) was calculated as In2/λz. The AUC0-inf was calculated as the sum of AUC0-t and Cobs/λz, where Cobs, was the actual concentration at the time of the last quantifiable concentration. The plasma clearance (CL) for peginesatide was estimated as the ratio of dose/ AUC0-inf. The mean residence time (MRT) was calculated as the ratio of AUMC0-inf/AUC0-inf, where AUMC0-inf was the area under the first moment curve from the time zero to infinity. The volume of distribution at steady state (Vss) was estimated as CL x MRT.

[3] = Radioactivity in plasma, skin and eyes of pigmented vs albino rats (affinity for melanin); format: in vivo, male Long Evans (pigmented) rats; settings: single IV 5 mg·kg^−1 [^14C]-peginesatide; through 60 days; LSC; n=3 per time point
Protocol: Male Sprague-Dawley (albino) rats (n = 21; three per time point) were administered a single IV dose of 5 mg·kg^−1 [^14C]-peginesatide (27.5 μCi/kg) and tissue concentrations of radioactivity determined at 0.25, 6, and 24 h, and 7,14,30 and 60 days following dosing. Similarly, male Long Evans (pigmented) rats (n = 21; three per time point) were administered a single IV dose of 5 mg-kg^−1 [^14C]-peginesatide and plasma, skin, and eye concentrations of radioactivity were measured at the various time points through 60 days after dosing. At each time point, blood was collected, the animals sacrificed, and tissues excised. Tissues collected from the Sprague-Dawley rats included blood, plasma, adrenals, bone marrow, brain, eyes, fat, femur, Harderian glands, heart, hypophysis, intestine, kidneys, lungs, liver, pancreas, skeletal muscle, skin, spinal cord, spleen, stomach, submaxillary glands, testes, thymus, thyroid gland, and urinary bladder. Plasma, eyes, non-pigmented skin, and pigmented skin were collected from Long Evans rats. All tissue samples were measured for radioactivity by LSC following combustion. […] The concentration of radioactivity in the blood, plasma, and tissues was calculated and expressed as ug equiv·g^-1 or mLbased on the LSC counts and the specific activity of the dosing solution.

[4] = Plasma pharmacokinetics of unlabeled peginesatide after a single IV dose (ELISA); format: in vivo, male Sprague-Dawley rats; settings: for time for which plasma concentrations were quantifiable: LLOQ 40 ng/mL; for AUC0–t / CL / t½ / Cmax: plasma, mean (SD), n=3; for Cmax: value at 0.25 h
Protocol: Plasma samples were analyzed for peginesatide concentration using a competition enzyme linked immunosorbent assay (ELISA) as previously described ([Fan et al. 2006]). The capture anti-peginesatide antibody was a high affinity polyclonal antibody preparation directed against the peptidic part of the molecule so the assay detects mono- and di-PEG-conjugated peptide as well as free peptide. The lower limit of quantitation was 40 ng-mL^1, the intra assay precision (% coefficient of variation) was 5-10% and the intra assay accuracy (% bias) was 1.9-5.7%.
The PK of peginesatide was assessed in male Sprague-Dawley rats following the administration of unlabeled and radiolabeled test article. The linearity of the PK profile was evaluated in rats (n = 3/group) administered a single IV dose of peginesatide at 0.1, 0.5, or 5 mg·kg^−1. Blood samples were collected predose and 0.25,1, 6, and 24h, and 2,3, 5, 7,10,14,17, 21, 24, and 28 days following dosing. Samples were analyzed by ELISA.
as §1

## Peginesatide
[1]
  Day 14 concentration, Kidneys: 2.64 μg equiv·g^−1 or mL
[2]
  Cmax, total radioactivity: 150 ug equiv·mL^−1
[3]
  association with melanin (kinetics in plasma, skin and eyes of pigmented vs non-pigmented rats): neither peginesatide nor the other radioactive components associated with melanin
[4]; 0.1 mg·kg^−1 IV
  time for which plasma concentrations were quantifiable: 3 days
  AUC0–t: 60.3 (4.71) μg·h/mL
  CL: 1.65 (0.13) mL/h/kg
  t½: 17.5 (0.3) h
  Cmax: 2.56 (0.162) μg/mL
[4]; 0.5 mg·kg^−1 IV
  AUC0–t: 388 (48.8) μg·h/mL
  CL: 1.29 (0.18) mL/h/kg
  t½: 19.7 (2.6) h
  Cmax: 13.5 (1.40) μg/mL
[4]; 5 mg·kg^−1 IV
  time for which plasma concentrations were quantifiable: up to 7 days
  AUC0–t: 5405 (327) μg·h/mL
  CL: 0.92 (0.06) mL/h/kg
  t½: 31.6 (3.4) h
  Cmax: 137 (6.19) μg/mL
